This assay addresses agrl1_mouse Adgrl1 (UniProt Q80TR1).
Chain of UniProt Q80TR1 (Q80TR1 whole entry): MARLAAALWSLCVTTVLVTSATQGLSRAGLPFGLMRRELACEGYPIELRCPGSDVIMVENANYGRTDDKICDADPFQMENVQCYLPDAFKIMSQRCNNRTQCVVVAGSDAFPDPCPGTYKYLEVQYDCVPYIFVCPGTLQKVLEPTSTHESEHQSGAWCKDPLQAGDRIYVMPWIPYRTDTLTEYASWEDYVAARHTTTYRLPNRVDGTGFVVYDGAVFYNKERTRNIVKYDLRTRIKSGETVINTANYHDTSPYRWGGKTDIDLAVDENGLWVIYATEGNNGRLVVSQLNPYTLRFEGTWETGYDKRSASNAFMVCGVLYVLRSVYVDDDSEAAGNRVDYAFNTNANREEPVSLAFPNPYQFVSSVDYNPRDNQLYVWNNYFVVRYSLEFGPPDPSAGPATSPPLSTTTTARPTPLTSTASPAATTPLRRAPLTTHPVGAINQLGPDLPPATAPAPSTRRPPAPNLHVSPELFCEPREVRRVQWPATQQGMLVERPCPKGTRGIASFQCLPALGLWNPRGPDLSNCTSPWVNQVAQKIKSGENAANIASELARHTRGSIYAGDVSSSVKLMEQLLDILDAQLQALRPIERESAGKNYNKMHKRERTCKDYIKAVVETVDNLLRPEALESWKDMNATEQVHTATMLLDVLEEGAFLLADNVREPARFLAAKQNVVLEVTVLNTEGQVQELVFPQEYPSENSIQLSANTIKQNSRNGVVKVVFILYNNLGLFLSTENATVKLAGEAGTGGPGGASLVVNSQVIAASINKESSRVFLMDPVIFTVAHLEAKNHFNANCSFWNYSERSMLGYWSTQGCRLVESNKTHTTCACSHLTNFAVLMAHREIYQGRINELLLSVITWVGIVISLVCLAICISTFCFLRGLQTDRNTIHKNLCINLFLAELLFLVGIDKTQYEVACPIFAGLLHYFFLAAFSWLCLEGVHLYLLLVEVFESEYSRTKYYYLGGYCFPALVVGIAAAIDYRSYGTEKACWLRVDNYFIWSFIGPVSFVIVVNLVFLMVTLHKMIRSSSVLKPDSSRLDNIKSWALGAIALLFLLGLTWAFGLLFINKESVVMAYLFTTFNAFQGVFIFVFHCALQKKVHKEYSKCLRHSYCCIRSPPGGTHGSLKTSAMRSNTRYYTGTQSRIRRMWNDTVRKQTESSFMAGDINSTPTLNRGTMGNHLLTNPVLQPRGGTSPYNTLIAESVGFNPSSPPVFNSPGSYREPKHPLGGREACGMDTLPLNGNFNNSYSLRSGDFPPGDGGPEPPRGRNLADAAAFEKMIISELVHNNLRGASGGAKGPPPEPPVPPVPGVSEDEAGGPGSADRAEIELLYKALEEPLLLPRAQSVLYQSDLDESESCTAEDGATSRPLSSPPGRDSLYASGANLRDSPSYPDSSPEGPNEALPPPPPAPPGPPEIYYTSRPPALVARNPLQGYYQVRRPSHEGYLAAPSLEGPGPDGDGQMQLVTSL

Regarding Teneurin-1 (Mus musculus), Q9WTS4 R37K, the “effect of a mutation on the interaction” value is “with no effect”.

(Values after IntAct's records for PubMed 30774623.)
